In patent US20190270786A1 (PROTAGONIST THERAPEUTICS, published 2019):
Bridge positions count the residues as written; N and C are the ends.

T1: human IL-23 (human, UniProt Q9NPF7 20-189; P29460 23-328)
T1 construct: also called interleukin-23
T1 sequence (looked up) 1: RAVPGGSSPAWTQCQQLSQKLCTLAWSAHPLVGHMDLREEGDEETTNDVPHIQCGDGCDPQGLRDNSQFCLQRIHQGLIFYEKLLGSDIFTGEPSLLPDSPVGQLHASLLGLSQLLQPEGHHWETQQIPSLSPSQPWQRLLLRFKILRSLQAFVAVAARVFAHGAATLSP
T1 sequence (looked up) 2: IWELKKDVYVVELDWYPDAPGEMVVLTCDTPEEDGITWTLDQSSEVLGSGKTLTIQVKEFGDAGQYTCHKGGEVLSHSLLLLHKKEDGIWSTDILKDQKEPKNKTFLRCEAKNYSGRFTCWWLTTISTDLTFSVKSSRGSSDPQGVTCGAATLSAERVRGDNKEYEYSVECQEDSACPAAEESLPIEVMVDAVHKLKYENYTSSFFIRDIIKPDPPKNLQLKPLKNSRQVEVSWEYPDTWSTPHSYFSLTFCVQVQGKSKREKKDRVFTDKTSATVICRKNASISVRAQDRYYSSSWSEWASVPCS

T2: mouse IL-23 (mouse, UniProt Q9EQ14 22-196; P43432 23-335)
T2 sequence (looked up) 1: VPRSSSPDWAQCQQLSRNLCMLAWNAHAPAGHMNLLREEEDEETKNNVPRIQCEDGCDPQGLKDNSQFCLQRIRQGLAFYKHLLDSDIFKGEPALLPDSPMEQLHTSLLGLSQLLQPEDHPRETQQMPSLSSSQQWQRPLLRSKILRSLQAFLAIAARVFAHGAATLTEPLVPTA
T2 sequence (looked up) 2: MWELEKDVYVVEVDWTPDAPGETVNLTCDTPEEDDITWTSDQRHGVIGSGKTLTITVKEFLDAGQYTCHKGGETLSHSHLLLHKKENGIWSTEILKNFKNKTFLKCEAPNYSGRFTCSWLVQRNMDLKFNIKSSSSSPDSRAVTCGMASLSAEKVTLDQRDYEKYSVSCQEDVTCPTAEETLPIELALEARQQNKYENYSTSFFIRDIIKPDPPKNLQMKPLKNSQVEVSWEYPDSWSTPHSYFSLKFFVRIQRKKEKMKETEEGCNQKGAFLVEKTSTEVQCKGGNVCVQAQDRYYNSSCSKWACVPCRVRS

T3: human IL-12 (human, UniProt P29459 23-219; P29460 23-328)
T3 sequence (looked up) 1: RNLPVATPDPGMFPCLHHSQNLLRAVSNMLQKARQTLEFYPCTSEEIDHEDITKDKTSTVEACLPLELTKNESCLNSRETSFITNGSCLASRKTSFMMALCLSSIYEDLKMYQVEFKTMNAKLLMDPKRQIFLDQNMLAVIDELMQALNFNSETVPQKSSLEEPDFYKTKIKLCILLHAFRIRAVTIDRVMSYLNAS
T3 sequence (looked up) 2: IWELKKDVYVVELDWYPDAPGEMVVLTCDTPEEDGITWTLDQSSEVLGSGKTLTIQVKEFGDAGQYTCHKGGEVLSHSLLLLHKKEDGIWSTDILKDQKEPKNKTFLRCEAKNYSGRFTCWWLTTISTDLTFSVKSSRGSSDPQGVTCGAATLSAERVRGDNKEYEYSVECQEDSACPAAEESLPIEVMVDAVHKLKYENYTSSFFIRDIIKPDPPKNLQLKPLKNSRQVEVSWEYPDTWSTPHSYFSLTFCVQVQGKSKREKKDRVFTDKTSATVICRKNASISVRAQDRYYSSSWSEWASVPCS


Experiments:
human IL-23 [1] = biological target: T1, human IL-23; assay: Human IL23/IL12Rβ1 huFc competition ELISA (IL-12Rβ1_huFC coated, IL-23 at its EC50)
Procedure: (§1) Human IL-12Rβ1 ELISA assays were performed as follows: an assay plate was coated with 100 ng/well of human IL-12Rβ1_huFC and incubated overnight at 4° C. The wells were washed, blocked, and washed again. […] Signals were visualized with TMB One Component HRP Membrane Substrate and quenched with 2 M sulfuric acid.

mouse IL-23 = biological target: T2, mouse IL-23; assay: Mouse IL23/IL23R huFc competition ELISA
human IL-23 [2] = biological target: T1, human IL-23; assay: cell-based or functional assay
human IL-12 = biological target: T3, human IL-12; assay: Human IL12/IL12Rβ1 huFc competition ELISA (IL-12Rβ1_huFC coated, IL-12 at its EC50)
Procedure: as §1

human IL-23 [3] = biological target: T1, human IL-23; assay: Human IL23/IL23R huFc competition ELISA
Procedure: (§2) Immulon® 4HBX plate was coated with 200 ng/well of IL23R_huFC and incubated overnight at 4° C. The wells were washed three times with PBST, blocked with PBS containing 5% PhosphoBLOCKER (Cell Biolabs #AKR-103) for 1 hour at room temperature, and washed again three times with PBST. […] The wells were again washed four times with PBST. The secondary antibodies, HRP conjugated donkey anti-goat IgG (Jackson ImmunoResearch Laboratories #705-035-147) diluted 1:5000 in PBS, was then added and incubated for 30 minutes at room temperature. The plate was finally washed as above. Signals were visualized with TMB One Component HRP Membrane Substrate, quenched with 2 M sulfuric acid and read spectrophotometrically at 450 nm.

human IL-23 [4] = biological target: T1, human IL-23; assay: IL23-IL23R competitive binding ELISA (IL23R_huFC coated, 0.9 nM IL-23, peptide titrated); bin by the legend in paragraph 291
Procedure: as §2

Row | IC50 (human IL-23 [1]) | IC50 (mouse IL-23) | Mouse splenocyte assay: IC50 of IL-23-dependent IL-17A release (human IL-23 [2]) | IC50 (human IL-12) | IC50 (human IL-23 [3]) | IC50 (human IL-23 [4]) | Binder
1 | 0.14 µg/mL |  |  |  |  |  | Ustekinumab (antibody, V domains shown) VH: EVQLVQSGAEVKKPGESLKISCKGSGYSFTTYWLGWVRQMPGKGLDWIGIMSPVDSDIRYSPSFQGQVTMSVDKSITTAYLQWNSLKASDTAMYYCARRRPGQGYFDFWGQGTLVTVSS VL: DIQMTQSPSSLSASVGDRVTITCRASQGISSWLAWYQQKPEKAPKSLIYAASSLQSGVPSRFSGSGSGTDFTLTISSLQPEDFATYYCQQYNIYPYTFGQGTKLEIK
2 | > 100 µM | 3.6 µM | 1.6 µM | > 100 µM | 3.3 µM |  | Ac-FNMQCLRRMSEAGVDPNLNQEQRWAKIKSIMDDC-NH2 (disulfide 5-34; SMILES CC[C@H](C)[C@@H]1NC(=O)[C@H](CCCCN)NC(=O)[C@H](C)NC(=O)[C@H](Cc2c[nH]c3ccccc23)NC(=O)[C@H](CCCNC(=N)N)NC(=O)[C@H](CCC(N)=O)NC(=O)[C@H](CCC(=O)O)NC(=O)[C@H](CCC(N)=O)NC(=O)[C@H](CC(N)=O)NC(=O)[C@H](CC(C)C)NC(=O)[C@H](CC(N)=O)NC(=O)[C@@H]2CCCN2C(=O)[C@H](CC(=O)O)NC(=O)[C@H](C(C)C)NC(=O)CNC(=O)[C@H](C)NC(=O)[C@H](CCC(=O)O)NC(=O)[C@H](CO)NC(=O)[C@H](CCSC)NC(=O)[C@H](CCCNC(=N)N)NC(=O)[C@H](CCCNC(=N)N)NC(=O)[C@H](CC(C)C)NC(=O)[C@@H](NC(=O)[C@H](CCC(N)=O)NC(=O)[C@H](CCSC)NC(=O)[C@H](CC(N)=O)NC(=O)[C@H](Cc2ccccc2)NC(C)=O)CSSC[C@@H](C(N)=O)NC(=O)[C@H](CC(=O)O)NC(=O)[C@H](CC(=O)O)NC(=O)[C@H](CCSC)NC(=O)[C@H]([C@@H](C)CC)NC(=O)[C@H](CO)NC(=O)[C@H](CCCCN)NC1=O, Synthetic peptide) [Peptide 10]
3 |  |  |  |  |  | ≤ 1 µM | Ac-FNMQCLRRMAEAGVDPNLNQEQRWAKIKSIMDDC-NH2 (disulfide 5-34; SMILES CC[C@H](C)[C@@H]1NC(=O)[C@H](CCCCN)NC(=O)[C@H](C)NC(=O)[C@H](Cc2c[nH]c3ccccc23)NC(=O)[C@H](CCCNC(=N)N)NC(=O)[C@H](CCC(N)=O)NC(=O)[C@H](CCC(=O)O)NC(=O)[C@H](CCC(N)=O)NC(=O)[C@H](CC(N)=O)NC(=O)[C@H](CC(C)C)NC(=O)[C@H](CC(N)=O)NC(=O)[C@@H]2CCCN2C(=O)[C@H](CC(=O)O)NC(=O)[C@H](C(C)C)NC(=O)CNC(=O)[C@H](C)NC(=O)[C@H](CCC(=O)O)NC(=O)[C@H](C)NC(=O)[C@H](CCSC)NC(=O)[C@H](CCCNC(=N)N)NC(=O)[C@H](CCCNC(=N)N)NC(=O)[C@H](CC(C)C)NC(=O)[C@@H](NC(=O)[C@H](CCC(N)=O)NC(=O)[C@H](CCSC)NC(=O)[C@H](CC(N)=O)NC(=O)[C@H](Cc2ccccc2)NC(C)=O)CSSC[C@@H](C(N)=O)NC(=O)[C@H](CC(=O)O)NC(=O)[C@H](CC(=O)O)NC(=O)[C@H](CCSC)NC(=O)[C@H]([C@@H](C)CC)NC(=O)[C@H](CO)NC(=O)[C@H](CCCCN)NC1=O, Synthetic peptide) [Peptide 13]
